T1: human FcγRIIA 131H on blood cells of 131H/H donors (human, UniProt P12318 34-317)
T1 sequence (looked up): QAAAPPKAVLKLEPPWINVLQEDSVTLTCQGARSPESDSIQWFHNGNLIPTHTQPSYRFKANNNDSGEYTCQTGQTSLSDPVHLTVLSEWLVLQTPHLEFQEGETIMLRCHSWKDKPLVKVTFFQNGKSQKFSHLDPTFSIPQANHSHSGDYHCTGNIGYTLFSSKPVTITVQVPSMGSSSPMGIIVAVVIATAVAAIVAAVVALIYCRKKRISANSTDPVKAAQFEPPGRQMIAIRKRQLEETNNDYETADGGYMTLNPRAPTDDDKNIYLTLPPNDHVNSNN

T2: human FcγRIIA 131R on blood cells of 131R/R donors (human, UniProt P12318 34-317)
T2 sequence: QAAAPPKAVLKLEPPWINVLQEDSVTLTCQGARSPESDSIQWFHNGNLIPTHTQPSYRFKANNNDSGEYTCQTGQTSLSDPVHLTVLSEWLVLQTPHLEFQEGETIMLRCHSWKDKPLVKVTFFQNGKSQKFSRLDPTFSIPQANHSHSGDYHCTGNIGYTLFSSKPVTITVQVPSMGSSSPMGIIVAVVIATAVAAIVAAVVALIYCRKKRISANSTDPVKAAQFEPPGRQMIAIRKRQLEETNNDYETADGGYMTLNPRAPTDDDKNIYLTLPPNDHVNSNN

T3: Human CD32A 131H extracellular domain, 6xHis_Flag tagged (human, UniProt P12318 34-217)
T3 construct: Used unlabelled as the analyte in Biacore; also called Hu CD32A_131His
T3 sequence: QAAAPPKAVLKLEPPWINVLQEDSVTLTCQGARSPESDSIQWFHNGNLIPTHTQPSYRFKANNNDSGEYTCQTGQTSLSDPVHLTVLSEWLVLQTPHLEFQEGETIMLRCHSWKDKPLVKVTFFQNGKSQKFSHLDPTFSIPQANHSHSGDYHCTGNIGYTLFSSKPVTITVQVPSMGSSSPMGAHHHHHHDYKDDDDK

T4: Human CD32A 131R extracellular domain, 6xHis_Flag tagged (human, UniProt P12318 34-217)
T4 construct: also called Hu CD32A_131Arg; human CD32A_131 Arg
T4 chain: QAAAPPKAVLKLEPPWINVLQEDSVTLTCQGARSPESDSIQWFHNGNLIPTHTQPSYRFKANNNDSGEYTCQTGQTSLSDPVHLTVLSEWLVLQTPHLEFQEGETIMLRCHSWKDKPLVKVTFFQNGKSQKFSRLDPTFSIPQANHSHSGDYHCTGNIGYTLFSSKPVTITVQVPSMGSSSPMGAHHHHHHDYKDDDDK

T5: cynomolgus CD32A version 3, 6xHis tagged (cynomolgus monkey)
T5 construct: also called Cyno CD32A; cyno CD32A (version 3)
T5 chain: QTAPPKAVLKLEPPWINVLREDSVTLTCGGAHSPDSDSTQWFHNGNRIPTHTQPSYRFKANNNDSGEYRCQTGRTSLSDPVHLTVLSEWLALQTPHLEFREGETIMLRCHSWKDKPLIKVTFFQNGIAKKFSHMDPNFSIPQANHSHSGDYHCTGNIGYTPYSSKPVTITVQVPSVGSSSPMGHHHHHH


Assays:
[1] = target: T1, human FcγRIIA 131H on blood cells of …; assay: cell-based or functional assay
[2] = target: T2, human FcγRIIA 131R on blood cells of …; assay: cell-based or functional assay
[3] = target: T2, human FcγRIIA 131R on blood cells of …; assay: cell-based or functional assay; remark: listed apart in the source
[4] = target: T3, Human CD32A 131H extracellular domain, …; assay: HTRF epitope competition: sample IgG titrated against binding of mouse IV.3 IgG to biotinylated human CD32A 131H
Description: Subsequently, a potential […] site was removed in VL CDR1 (N28L) to reduce the risk of chemical modification during manufacture.
5 μl is added to the assay plate (384 black, shallow well, Costar, 3676), to give a final concentration of 2.0 nM. […] 5 μl of each IgG sample is transferred to the assay plate using a MiniTrak™ (Perkin Elmer). […] Assay plates were incubated for 3 hours at room temperature prior to reading time resolved fluorescence at 620 nm and 665 nm emission wavelengths using an EnVision plate reader (Perkin Elmer).

[5] = target: T4, Human CD32A 131R extracellular domain, …; assay: Biacore; IgG1-TM captured on a Protein G chip, CD32A as analyte, 1:1 Langmuir fit, average of two experiments
[6] = target: T3, Human CD32A 131H extracellular domain, …; assay: as above
[7] = target: T5, cynomolgus CD32A version 3, 6xHis tagged; assay: as above
[8] = target: T1, human FcγRIIA 131H on blood cells of …; assay: cell-based or functional assay; remark: listed apart in the source
[9] = target: cynomolgus monkey FcγRIIA on blood cells (cynomolgus monkey); assay: cell-based or functional assay
[10] = target: T3, Human CD32A 131H extracellular domain, …; assay: HTRF epitope competition; competitor IV.3 IgG on biotinylated human CD32A 131H

Row | EC50 of FcγRIIA internalization from the monocyte surface (whole blood FACS assay) [1] [nM] | EC50 of FcγRIIA internalization from the monocyte surface (whole blood FACS assay) [2] [nM] | IC50 of the loss of surface FcγRIIA (M.F.I of IV.3-Alexa 647) on monocytes, whole blood, 2 h at 37 °C [3] [nM] | IC50 (read off the curve) [4] [nM] | Kd [5] [nM] | koff [5] [s⁻¹] | kon [5] [M⁻¹ s⁻¹] | Kd [6] [nM] | koff [6] [s⁻¹] | kon [6] [M⁻¹ s⁻¹] | Kd [7] [nM] | koff [7] [s⁻¹] | kon [7] [M⁻¹ s⁻¹] | IC50 of the loss of surface FcγRIIA (M.F.I of IV.3-Alexa 647) on monocytes, whole blood, 2 h at 37 °C [8] [nM] | IC50 of the loss of surface FcγRIIA (M.F.I of IV.3-Alexa 647) on cynomolgus monocytes, whole blood, 2 h at 37 °C [9] [nM] | fold loss of potency in the IV.3 epitope competition assay (the next sentence compares with the mouse IgG) [10] [fold] | Binder
1 | 0.19 | 0.2 | 0.198 | ~2 | 0.22 | 0.00129 | 5.95e+06 | 0.22 | 0.000681 | 3.03e+06 | 44.1 | 0.204 | 4.63e+06 | 0.191 | 7.82 | – | chimeric IV.3 (human IgG1-TM) (antibody, V domains shown, also called parent IV.3 chimeric Ab; chimeric IV.3 antibody) VH: QIQLVQSGPELKKPGETVKISCKASGYTFTNYGMNWVKQAPGKGLKWMGWLNTYTGESIYPDDFKGRFAFSSETSASTAYLQINNLKNEDMATYFCARGDYGYDDPLDYWGQGTSVTVSS VL: DIVMTQAAPSVPVTPGESVSISCRSSKSLLHTNGNTYLHWFLQRPGQSPQLLIYRMSVLASGVPDRFSGSGSGTAFTLSISRVEAEDVGVFYCMQHLEYPLTFGAGTKLELK
2 | – | – | – | – | – | – | – | – | – | – | – | – | – | – | – | 10 | fully humanized IV.3 IgG1 (VH and VL fully humanized, before Y36F and N28L) (antibody) chain 1: QVQLVQSGAEVKKPGASVKVSCKASGYTFTNYGMNWVRQAPGQRLEWMGWLNTYTGESIYPDDFKGRVTITRDTSASTAYMELSSLRSEDTAVYYCARGDYGYDDPLDYWGQGTLVTVSS chain 2: DIVMTQSPLSLPVTPGEPASISCRSSKSLLHTNGNTYLHWYLQKPGQSPQLLIYRMSVLASGVPDRFSGSGSGTDFTLKISRVEAEDVGVYYCMQHLEYPLTFGQGTKLEIK

Reference: patent US20260125478A1 (VIELA BIO, published 2026)
